From the nanobody polyreactivity screen of Harvey et al. (2022)

Assay: yeast display, Sf9 membrane polyspecificity reagent, FACS + sequencing; frameworks hold sequencing errors
How it was run: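 A synthetic nanobody library was expressed on Saccharomyces cerevisiae BJ5465 by galactose induction for 36–48 hours. The library was stained for 1 hour at 4 °C with 10% biotinylated, detergent-solubilized Sf9 membrane reagent and enriched with streptavidin microbeads before FACS. Low and high (top ~1%) gates were set on anti-HA fluorescence for expression and streptavidin fluorescence for reagent binding, and each polyreactivity label reflects the gate of origin.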

Row | Sequence | polyreactivity (PSR sort gate)
1 | QVQLVESGGGLVQAGGSLRLSCAASGSIFARYAMGWYRQAPGKERELVAAISSNSASTYYADSVKGRFTSSRDNAKNTVYLQMNSLKPEDTAVDYCATAYRSDWLNDYWGQGTQVTVSS | low polyreactivity
2 | QVQLVESGGGLVQAGGSLRLSCAASGSIFARYAMGWYRQAPGKERELVAALSGSGASTYYADSVKGRFTISRDNAKNTVYLQMNSLKPEDTAVYYCARPFLRRPTYRFETGYGYWGQGTQVTVSS | high polyreactivity
3 | QVQLVESGGGLVQAGGSLRLSCAASGSIFARYTMGWYRQAPGKERELVARITSSGGSTYYADSVKGRFTISRDNAKNTVYLQMNSLKPEDTAVYYCAARYRRYVRFQGDYWGQGTQVTVSS | high polyreactivity
4 | QVQLVESGGGLVQAGGSLRLSCAASGSIFASNAMGWYRQAPGKEREFVAAIRYSAGITYYADSVKGRFTISRDNAKNTVYLQMNSLKPEDTAVYFCSAYGWVNRWYSRFDYWGQGTQVTVSS | high polyreactivity
5 | QVQLVESGGGLVQAGGSLRLSCAASGSIFASNAMGWYRQAPGKERELVAAITTSGDSTYYADSVKGRFTISRDHAKTTVYFQMNSLKPEDTAVYYCATDKGWGLMDSWGQGTQVTVSS | low polyreactivity
6 | QVQLVESGGGLVQAGGSLRLSCAASGSIFASNAMGWYRQEPGKEREFVAAITWRTDRTYYADSVKGRFTISRDNEKNTVYLQMNSLKPEDTAGYYCAADTWFYRFYYWGQGTQVTVSS | high polyreactivity
7 | QVQLVESGGGLVQAGGSLRLSCAASGSIFASNTMGWYRQAPGKERELVAGITKIGSSTYYADSVKGRFTISRDNAKNTVYLQMNSLKPEDTAVYYGNADYYFSWGSIEDYWGQGTQVSVSS | low polyreactivity
8 | QVQLVESGGGLVQAGGSLRLSCAASGSIFASYAMGWYRQAPGKERELVAAISRSGGSTYYADSVKGRFTISRDNAKNTVYLQMNSLKPEDTAVYYCATGKIREDDYWGQGTQVTVSS | high polyreactivity
9 | QVQLVESGGGLVQAGGSLRLSCAASGSIFATNTMGWYRQSPGKERELVATISSSDSTNYADSVKGRFTISRDNAKNTVYLEMNSLKPVDTAVYYCNKAYVDSTHGSYRWTYDYWGQGTQVTVSS | low polyreactivity
10 | QVQLVESGGGLVQAGGSLRLSCAASGSIFATYAMGWYRQAPGKERELVAAITSSDGSTNYADSVKGRFTISRDNAKNTVDLQMNRLKPEDTAVYYCATDAPDRTDSDSGFDAGYDYWGQGTQVTLSS | low polyreactivity
11 | QVQLVESGGGLVQAGGSLRLSCAASGSIFAVNAMGWYRQAPGKERELVAAITSGGNTYYADSVKGRFTISRDNAKNTVYLQMNSLKPEDTAVYYCATVFSVQGWYFGMNYWGQGTQVTVSS | low polyreactivity
12 | QVQLVESGGGLVQAGGSLRLSCAASGSIFAVYAMGRYRQAPGKERELVASISRTGTTNYADSVKGRFTISRDNAKNTVYLQMNSLKPEDTAVYYCNADAYLYYKYHWGFTFYQYEYWGQGTQVTVSS | low polyreactivity
13 | QVQLVESGGGLVQAGGSLRLSCAASGSIFAVYAMGWYRQAPGKERELVATISGRGGSTYYADSVKVRFTISRDNAKNTVYLQMNSLKPEDTAVYYCNARVLFRRERMDSWGQGTKVTVSS | high polyreactivity
14 | QVQLVESGGGLVQAGGSLRLSCAASGSIFAVYAMGWYRQAPGKERELVAVITRSGGSTYYADSVKGRFTISRDNAKNTVYLQMNSLKPEDTAVYYCAARRSYLLRYDYWGQGTQVTVSS | high polyreactivity
15 | QVQLVESGGGLVQAGGSLRLSCAASGSIFAVYTMGWYRQAPGKEREFVAAITKSGGRTYYADSVKGRFTISRDNAKNTVYLQMNSLNPEDTAFYYCARRRTIPYTLVDYDSWGQGTQVTVSS | low polyreactivity
16 | QVQLVESGGGLVQAGGSLRLSCAASGSIFAWYAMGWYRRAPGKESELVAAITWSGGSTYYADSVKGRFTISRDNAKNTVYLQMNSMKQEDTAVYYCAVEWYYRNNAIISGYYYWGKGTQVTVSS | high polyreactivity
17 | QVQLVESGGGLVQAGGSLRLSCAASGSIFAWYGMGWYRQAPGKERELVAAITSTGSTYYADSVKGRFTISRDNAKKTVYLQMNSLKPEDTAVYYCNAYSVYLWRPGDYWGQGTQVTVSS | low polyreactivity
18 | QVQLVESGGGLVQAGGSLRLSCAASGSIFAWYTMGWYRQAPGKERELVATITRGGSTTYADSVKGRFTISRDNAKITVYLQMNSLKPEDTAVYYCAADWRTKGYDSLGQGTQVTVSS | high polyreactivity
19 | QVQLVESGGGLVQAGGSLRLSCAASGSIFAYNAMGRYRPAPGKERELGAAITSDDSTNYADSVKGRFTISRDNAKNSVYLQMNSLKPEDTAVYYCAAYYYYTYIIGYDYCGQGTQVTVSS | low polyreactivity
20 | QVQLVESGGGLVQAGGSLRLSCAASGSIFAYNAMGWYRQAPGKERELVAAISSGGRTKYADSVKGRFTISRDNAKNTVYLQMNSLKPEDTAVYYCAAESYTGKYSWVWKWYDYWGQGTQVTVSS | low polyreactivity
21 | QVQLVESGGGLVQAGGSLRLSCAASGSIFAYNTMGWYRQAPGKEREFVAAISWRGGSTYYADSVKGRFTISRDNAKNTVYLQMTSLKPEDTAVYYCNARYRNTFYTRRYDYWGQGTQVTVSS | high polyreactivity
22 | QVQLVESGGGLVQAGGSLRLSCAASGSIFAYYALGWYRQAPGKERELVASIDWSGDLYVRDSVKGRFTISRDNAKNTVYFLMNSLKPEDTAVYYCAKDVSFQYGTGYDYWGQGNQVTVSS | low polyreactivity

Row | Sequence | polyreactivity (PSR sort gate)
23 | QVQLVESGGGLVQAGGSLRLSCAASGSIFAYYAMGWYRQAPGKERELVAAIDSGGGTSYADSVKGRFTISRDNAKNTVYLQMNSLNPEDTAVYYCNAAGYVVYYRIIAFGYWGQGTLVTVSS | low polyreactivity
24 | QVQLVESGGGLVQAGGSLRLSCAASGSIFAYYAMGWYRQAPGKERELVAAITSGDSTYYADSVKGRFTISRDNAKNTVYLQMNSLKPEDTAVYYCAADVSWRSNWYDYWGQGTQVTVSS | low polyreactivity
25 | QVQLVESGGGLVQAGGSLRLSCAASGSIFAYYTMGWYRQAPGKEREFVAAISYSGGSTYYADSVKGRFTISRDNAKNTVYLQMNSLKPEDTAVYYCFPGKTRLYGYWGQGTQVTVSS | high polyreactivity
26 | QVQLVESGGGLVQAGGSLRLSCAASGSIFAYYVMGWYRQAPGKERELVAAISRSGGRTYYADSVKGRFTISRDNAKNTVYLQMNSLKPEETAVYYCNSELYSRPPGAQDPRLRFDYWGQGTQVTVSS | high polyreactivity
27 | QVQLVESGGGLVQAGGSLRLSCAASGSIFCYYAMGWYRQAPGKERELVATITSGGSTSYADSVKGRFTISRDNAKNTVYLQMNSLKPEDTAVYYCAAARLFTTYDWGQGTQVTVSS | low polyreactivity
28 | QVQLVESGGGLVQAGGSLRLSCAASGSIFDAYMGWYRQAPGKERELVAGITRSGGSTYYADSVKGRFTISRDNAKNSVYLQMNSLKPEDTAVYYCAADYSSDGDYWGQGTQVTVSS | low polyreactivity
29 | QVQLVESGGGLVQAGGSLRLSCAASGSIFDDYAMGWYRQAPGKERELVAAITSGGSTYYADSVKGRFTISRDNAKKTVYLLMYSLKPEDTAVYFRATRYHWSSSFAPVGAYGYWGQGTQVTVSS | low polyreactivity
30 | QVQLVESGGGLVQAGGSLRLSCAASGSIFDFNAMGWYRQAPGKERELVAAITWGGGSTYYADSVKGRFTISRDNAKNTVYLQMNSLKPEDTAVYYCNAAYGRYRYDYWGQGTQVTVSS | low polyreactivity
31 | QVQLVESGGGLVQAGGSLRLSCAASGSIFDFYAMGRYRQAPGKERELVAAISYSGSSTYYADSVKGRFTISRDNAKNTVYLQMNSLKPEDTAVDYCATDYPGGYVYYSRFDYWGQGTQVTVSS | low polyreactivity
32 | QVQLVESGGGLVQAGGSLRLSCAASGSIFDFYAMGWYRQAPGKERELVAAINSGGRTYADSVKGRFTISRDNAKNTVYLQMNSLKPEDTAVYYCAAEYQYLSVEVTDIWYLTKYDYWGQGTQVTVSS | low polyreactivity
33 | QVQLVESGGGLVQAGGSLRLSCAASGSIFDFYAMGWYRQAPGKERELVATITASGGSTYYADSVKGRFTISRDNAKNTVYLQMNSLKPEDTAVSYCNADSVYWGQGTQVTVSS | low polyreactivity
34 | QVQLVESGGGLVQAGGSLRLSCAASGSIFDGYAMGGSRQAPGNERELLAAISSGTSTNYADSVKGRFTISRDNAKNTVYLQMNSLKPEDTAVYYCNAYPPYLYATYDYWGQGTQVTVSS | low polyreactivity
35 | QVQLVESGGGLVQAGGSLRLSCAASGSIFDGYAMGWYRQAPGKEREFVAAITKRTGRTYYADSVKGRFTISRDNAKNTVYLQMNSLKPEDTAVYYCAAAIPRFSAGHYDYCGQGTQVTVSS | high polyreactivity
36 | QVQLVESGGGLVQAGGSLRLSCAASGSIFDGYAMGWYRQAPGKEREFVASIRFSTGRTYYADSVKGRFTISRDNAKNSVYLQMNSLKPEDTAGYYCNAPQGFVWRYSSWGPYDYWGQGTQVTVSS | high polyreactivity
37 | QVQLVESGGGLVQAGGSLRLSCAASGSIFDHNAMGWYRQAPGKEREFVARITSSGGGTYYADSVKGRFTISRDNAKNTVYLQMNSLKPEDTAVYYCAKTYYRQGARYPTLFYYWGQGTQVTVSS | low polyreactivity
38 | QVQLVESGGGLVQAGGSLRLSCAASGSIFDKNAMGWYRQAPGKERELVAAISRSGGRTYYADSVKGRFTISRDNAKNTVYLQMNSLKPEDTAVYYCNAVYYYRPYWRQSTLSQYGYWGQGTQVTVSS | high polyreactivity
39 | QVQLVESGGGLVQAGGSLRLSCAASGSIFDLNAMGWYRQAPGKERELVAAISKSGGSTYYADSVKGRFTISRDNAKNTVYLQMNSLKPEDTAVYYCAKDRKYHLSGGYDYWGQGSQVTVSS | low polyreactivity
40 | QVQLVESGGGLVQAGGSLRLSCAASGSIFDLNAMGWYRQAPGKERELVAAISSGGGTYYADSVKGRFTISRDNAKNTVYLKMNSLKPEDTAVYYCKRVTRWTYNYWGQGTQVSVSS | high polyreactivity
41 | QVQLVESGGGLVQAGGSLRLSCAASGSIFDLNAMGWYRQAPGKERELVAAISSVGGTYYADSVKGRFTISRDNAKNTGYLQMNSLKPEDTAVYYCNRVTRWTYNYWGQGTQVTVSS | high polyreactivity
42 | QVQLVESGGGLVQAGGSLRLSCAASGSIFDLYAMGWYRQAPGKERELVAGISYSGGSTYYADSVKGRFTISRDNAKNTVYLQMNSLKPEDTAVYYCAADDSYWYDNYIDEAAANTFDYWGQGTQVTVSS | low polyreactivity
43 | QVQLVESGGGLVQAGGSLRLSCAASGSIFDNYAMGWYRQAPGKERELVAAINFSDGDTYYADSVKGRFTISRDNAKNTVYLQMNSLKPEDTAVYYCAAEVWYPPEYYDEYDYWGQGTQVTVSS | low polyreactivity
